Data as given in paper PMC3861084 (Molecular Biology of the Cell, 2013).

Molecular target: T1, pY14–Cav-1–mRFP (Cav-1–monomeric red fluorescent protein phosphorylated at Tyr-14) (canine, UniProt P33724 1-178, phosphotyrosine at 14)
T1 sequence (looked up): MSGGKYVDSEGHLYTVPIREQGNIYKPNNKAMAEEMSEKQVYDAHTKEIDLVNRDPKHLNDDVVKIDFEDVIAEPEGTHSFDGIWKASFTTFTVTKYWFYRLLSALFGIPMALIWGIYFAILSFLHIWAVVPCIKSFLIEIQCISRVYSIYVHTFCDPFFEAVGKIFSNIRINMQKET
Experiment: far-Western

- binding result: binds
B1: GST fused to the Src SH2 domain (domain or fragment, chicken, UniProt P00523 148-251, looked up)
chain: WYFGKITRRESERLLLNPENPRGTFLVRESETTKGAYCLSVSDFDNAKGLNVKHYKIRKLDSGGFYITSRTQFSSLQQLVAYYSKHADGLCHRLTNVCPTSKPQ
